According to paper PMC5511257, “Plasticity in the Oxidative Folding Pathway of the High Affinity Nerita Versicolor Carboxypeptidase Inhibitor (NvCI)” (Scientific Reports, 2017):
Values belong to the binder of their own block, whether it stands above or below them. Bridges are numbered along the chain shown (N, C = ends). Where no end group is shown, it is not given here.

Assays:
Conditions in all cases: both partners purified
[1] = molecular target: T1, Bovine carboxypeptidase A (bCPA1) (bovine, UniProt P00730 111-419); experiment: enzyme inhibition kinetics (tight-binding inhibitor, Morrison equation); CPAs: inhibition of hydrolysis of N-(4-methoxyphenylazoformyl)-Phe-OH (0.1 mM) at 355 nm; 20 mM Tris-HCl pH 7.5, 1% v/v DMSO, 0.05% w/v Brij-35, 0.5 M NaCl; 37 °C; enzyme constant (7.5 nM hCPA1, 6.0 nM bCPA1), increasing amounts of inhibitor
T1 construct: Bovine carboxypeptidase A (CPA1), purchased active enzyme; also called bovine CPA1; source: bought: Sigma
T1 sequence (looked up): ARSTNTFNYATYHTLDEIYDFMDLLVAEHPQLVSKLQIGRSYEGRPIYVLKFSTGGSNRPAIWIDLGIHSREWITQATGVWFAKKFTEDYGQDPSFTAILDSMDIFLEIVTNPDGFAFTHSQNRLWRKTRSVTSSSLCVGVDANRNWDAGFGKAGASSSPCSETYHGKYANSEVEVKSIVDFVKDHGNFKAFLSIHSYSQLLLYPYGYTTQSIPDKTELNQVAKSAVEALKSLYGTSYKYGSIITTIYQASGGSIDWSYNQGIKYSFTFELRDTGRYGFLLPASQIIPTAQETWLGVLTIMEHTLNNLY

[2] = molecular target: T2, Human carboxypeptidase A1 (hCPA1) (human, UniProt P15085 111-419); experiment: as above
T2 construct: also called human CPA1
T2 sequence (looked up): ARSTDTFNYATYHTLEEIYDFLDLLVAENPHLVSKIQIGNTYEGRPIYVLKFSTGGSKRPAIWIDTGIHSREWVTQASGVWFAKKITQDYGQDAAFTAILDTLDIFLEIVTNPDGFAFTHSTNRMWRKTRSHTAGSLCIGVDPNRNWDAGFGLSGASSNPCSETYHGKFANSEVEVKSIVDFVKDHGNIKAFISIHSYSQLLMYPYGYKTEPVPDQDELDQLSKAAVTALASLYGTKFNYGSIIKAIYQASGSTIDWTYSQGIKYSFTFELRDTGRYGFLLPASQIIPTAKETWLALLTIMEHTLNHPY

[3] = molecular target: T3, Porcine carboxypeptidase B (pCPB1) (porcine, UniProt P09955 111-416); experiment: enzyme inhibition kinetics (tight-binding inhibitor, Morrison equation); CPBs: inhibition of hydrolysis of N-(4-methoxyphenylazoformyl)-Arg-OH (0.1 mM) at 355 nm; 20 mM Tris-HCl pH 7.5, 1% v/v DMSO, 0.05% w/v Brij-35, 0.1 M NaCl; 37 °C; enzyme constant (6.0 nM hCPB1 and pCPB1), increasing amounts of inhibitor
T3 construct: Porcine carboxypeptidase B (CPB1), purchased active enzyme; also called porcine CPB1; source: bought: Sigma
T3 sequence (looked up): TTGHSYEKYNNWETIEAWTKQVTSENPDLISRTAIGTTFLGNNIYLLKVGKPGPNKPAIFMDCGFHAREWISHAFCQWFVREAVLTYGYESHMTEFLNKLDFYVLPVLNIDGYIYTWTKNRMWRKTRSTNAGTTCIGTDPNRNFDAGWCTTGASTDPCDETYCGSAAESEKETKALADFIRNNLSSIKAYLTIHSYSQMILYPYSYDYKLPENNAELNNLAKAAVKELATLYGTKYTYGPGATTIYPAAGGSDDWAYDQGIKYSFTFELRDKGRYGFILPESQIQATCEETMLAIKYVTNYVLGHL

[4] = molecular target: T4, Human carboxypeptidase B1 (hCPB1) (human, UniProt P15086 111-417); experiment: as above
T4 construct: also called human CPB1
T4 sequence (looked up): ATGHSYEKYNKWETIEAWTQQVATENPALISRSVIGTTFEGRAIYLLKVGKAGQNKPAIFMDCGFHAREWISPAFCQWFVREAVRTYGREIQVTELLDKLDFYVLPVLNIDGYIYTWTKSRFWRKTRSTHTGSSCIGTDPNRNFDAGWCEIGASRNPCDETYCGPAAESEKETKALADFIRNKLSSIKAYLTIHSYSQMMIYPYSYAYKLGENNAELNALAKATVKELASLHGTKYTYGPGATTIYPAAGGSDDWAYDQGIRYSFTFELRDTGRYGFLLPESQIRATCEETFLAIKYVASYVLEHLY

- Ki [1]: 0.00491 nM
- Ki [2]: 0.00118 nM
- Ki [3]: 0.53 nM
- Ki [4]: 0.62 nM
B1: Nerita versicolor carboxypeptidase inhibitor (NvCI), native (natural protein, UniProt P86912 1-53, looked up)
chain: FHVPDDRPCINPGRCPLVPDATCTFVCKAADNDFGYECQHVWTFEGQRVGCYA
modifications: disulfide 15-51, 9-23, 27-38
notes: comprises 53 residues, C-terminal tail Cys51-Tyr52-Ala53; also called native NvCI; 3S-S native form; source: Pichia pastoris, secreted into the extracellular medium, purified (ion exchange, size exclusion); repurified by RP-HPLC

- Ki [1]: 2.01 nM
- Ki [2]: 1 nM
- Ki [3]: 4.9 nM
- Ki [4]: 7.85 nM
B2: des(15–51) NvCI folding/unfolding intermediate (natural protein, Nerita versicolor, UniProt P86912 1-53, looked up)
chain: B1 chain
modifications: disulfide 9-23, 27-38; cysteine pairing not given here
notes: differs only in the missing Cys15-Cys51 disulfide; also called intermediate IIb; fraction IIb
